Experimental data: article PMC7096168

T1: dCTCF zinc finger cluster (UniProt Q9VS55 294-614)
T1 sequence: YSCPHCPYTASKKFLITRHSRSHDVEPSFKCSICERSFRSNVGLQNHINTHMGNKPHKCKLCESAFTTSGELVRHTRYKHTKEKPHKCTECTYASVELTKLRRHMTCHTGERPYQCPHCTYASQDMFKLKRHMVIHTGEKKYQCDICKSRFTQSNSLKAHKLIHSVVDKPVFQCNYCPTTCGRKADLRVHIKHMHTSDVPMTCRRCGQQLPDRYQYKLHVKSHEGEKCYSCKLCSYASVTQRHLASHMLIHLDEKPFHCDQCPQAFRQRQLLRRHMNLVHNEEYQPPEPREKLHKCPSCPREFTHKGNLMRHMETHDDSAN

T2: Su(Hw) zinc finger cluster (UniProt P08970 220-619)
T2 sequence: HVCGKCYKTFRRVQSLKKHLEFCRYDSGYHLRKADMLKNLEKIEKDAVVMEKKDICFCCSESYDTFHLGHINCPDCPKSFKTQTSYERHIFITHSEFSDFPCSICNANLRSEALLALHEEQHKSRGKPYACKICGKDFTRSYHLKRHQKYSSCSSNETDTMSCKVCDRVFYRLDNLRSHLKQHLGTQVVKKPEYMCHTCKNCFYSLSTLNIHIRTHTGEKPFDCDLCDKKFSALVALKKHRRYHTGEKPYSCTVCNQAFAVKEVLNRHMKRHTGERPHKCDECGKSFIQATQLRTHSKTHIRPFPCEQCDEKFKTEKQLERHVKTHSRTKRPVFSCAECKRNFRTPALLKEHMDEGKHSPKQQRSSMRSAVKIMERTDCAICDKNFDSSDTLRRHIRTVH


Columns and labels:
[1] = target: T1, dCTCF zinc finger cluster; assay: EMSA
[2] = target: T2, Su(Hw) zinc finger cluster; assay: EMSA

Binder	binding result [1]	binding result [2]
F2177Δ21 (dsDNA) DNA 1: ATGCCTAAAAGTATGCAGAAATTTGTTCAACAAGTCTGCTTATGTGCACCCTCTCGCGATCGGTGGCATAACCAATCGAGGATTCAGCTCTTGAGCTACCTGCAAGCTTAAGGGCGACATCTATATCTCGCATAGTGTGCAGAACTGCTTGTTCCTAGTCAC DNA 2: GTGACTAGGAACAAGCAGTTCTGCACACTATGCGAGATATAGATGTCGCCCTTAAGCTTGCAGGTAGCTCAAGAGCTGAATCCTCGATTGGTTATGCCACCGATCGCGAGAGGGTGCACATAAGCAGACTTGTTGAACAAATTTCTGCATACTTTTAGGCAT	binds	–
F2177ΔSu (dsDNA) DNA 1: GTTCAACAAGTCTGCTTATGTGCACCCTCTCGCGATCGGTGGCATAACCAATCGAGGATTCAGCTCTTGAGCTACCTGCCGAAAGGGGCGCGGCGACCTTAAGGGCGACATCTATATCTCGCATAGTGTGCAGAACTGCTTGTTCCTAGTCAC DNA 2: GTGACTAGGAACAAGCAGTTCTGCACACTATGCGAGATATAGATGTCGCCCTTAAGGTCGCCGCGCCCCTTTCGGCAGGTAGCTCAAGAGCTGAATCCTCGATTGGTTATGCCACCGATCGCGAGAGGGTGCACATAAGCAGACTTGTTGAAC	binds	no binding
CTCF×4 (dsDNA) DNA 1: ACTAGTGCTGCAGCGCCACCTGGCCTTGGAGATCCTGCAGCGCCACCTGGCCTTGGAGATCCTGCAGCGCCACCTGGCCTTGGAGATCTCCAAGGCCAGGTGGCGCTGCAGCCCCGGG DNA 2: CCCGGGGCTGCAGCGCCACCTGGCCTTGGAGATCTCCAAGGCCAGGTGGCGCTGCAGGATCTCCAAGGCCAGGTGGCGCTGCAGGATCTCCAAGGCCAGGTGGCGCTGCAGCACTAGT	binds	–
F2177ΔC (dsDNA) DNA 1: ATGCCTAAAAGTATGCAGAAATTTGTTCAACAAGTCTGCTTATGTGCACCCTCTCGCGATCGGTGGCATAACCAATCGAGGATTCAGCTCTTGAGCTACCTGCCGAAAGGGGCGCGGCAACCTTAAGCTTGCATAGTGTGCAGAACTGCTTGTTCCTAGTCAC DNA 2: GTGACTAGGAACAAGCAGTTCTGCACACTATGCAAGCTTAAGGTTGCCGCGCCCCTTTCGGCAGGTAGCTCAAGAGCTGAATCCTCGATTGGTTATGCCACCGATCGCGAGAGGGTGCACATAAGCAGACTTGTTGAACAAATTTCTGCATACTTTTAGGCAT	no binding	binds
F2177 (dsDNA) DNA 1: ATGCCTAAAAGTATGCAGAAATTTGTTCAACAAGTCTGCTTATGTGCACCCTCTCGCGATCGGTGGCATAACCAATCGAGGATTCAGCTCTTGAGCTACCTGCCGAAAGGGGCGCGGCGACCTTAAGGGCGACATCTATATCTCGCATAGTGTGCAGAACTGCTTGTTCCTAGTCAC DNA 2: GTGACTAGGAACAAGCAGTTCTGCACACTATGCGAGATATAGATGTCGCCCTTAAGGTCGCCGCGCCCCTTTCGGCAGGTAGCTCAAGAGCTGAATCCTCGATTGGTTATGCCACCGATCGCGAGAGGGTGCACATAAGCAGACTTGTTGAACAAATTTCTGCATACTTTTAGGCAT	binds	binds
